Laboratory results from the RNAGym collection of RNA variant scans (doi:10.1021/acssynbio.7b00057).

B1: Pistol ribozyme (parent)
chain: GGGUCGUUGUUCCAUAAUCGCGUGGAUAUGGCACGCAAGUUUCUACCGGGCACCGUAAAUGUCCGACUGGAGCCGUUCGGGCGGCUAUAAACAGACCUCAGGCCCGAAGCGUGGCGGCACCUGCCGCCGGUGGUAAAAAAGAUCGGAAGAGCACACGUCU

Variants of: B1
Assay: aptazyme ON/OFF ratio, guanine; higher = stronger switching; co-transcriptional cleavage with and without guanine

In order of falling “aptazyme ON/OFF ratio” value:
1. U8G G9U  3.25
2. U8G G9U C12U  1.77
3. U8G G9U C12G  1.64
4. U8G G9U C12A  1.57
5. U8G G9U U10A C12A  1.43
6. U8G G9U C13U  1.41
7. U8G G9U C12A C13A  1.41
8. U8G G9U C13A  1.39
9. U8G G9C U10G U11G C12A C13U  1.3
10. U8G G9C U10G U11G C12G C13U  1.3
11. U8G G9C U10G C13A  1.27
12. U8G G9C U10G C12U C13U  1.26
13. U8G G9U U10A C12A C13U  1.25
14. U8G G9C U10G C13U  1.24
15. U8G G9C U10G U11G C12G C13A  1.24
16. U8G G9C U10A C12A  1.23
17. U8G G9U U10A C12G C13U  1.23
18. U8G G9U U10A U11A C12G C13U  1.22
19. U8G G9U U10A U11A C12A C13U  1.22
20. U8G G9U C12A C13G  1.22
21. U8G G9U U10A C12A C13A  1.21
22. U8G G9U U10A U11A C12G C13A  1.2
23. U8G G9U U10A C12G C13A  1.2
24. U8G G9U U10A  1.2
25. U8G G9C U10G C12A  1.19
26. U8G G9C U10G C12G  1.19
27. U8G G9C U10A U11A C12U C13U  1.19
28. U8G G9C U10G  1.19
29. U8G G9U U10A U11A C12G C13G  1.18
30. U8G G9U U10A C12A C13G  1.18
31. U8G G9C U10G U11G C12A C13A  1.18
32. U8G G9C U10A U11A C12A  1.18
33. U8G G9C U10A U11A C12U  1.18
34. U8G G9C U10A C12A C13U  1.17
35. U8G G9C U10C U11G C13A  1.17
36. U8G G9C U10A U11G C12U C13U  1.17
37. U8G G9C U10G C12G C13U  1.17
38. U8G G9C U10G U11A C12A  1.17
39. U8G G9U U10A U11C C12A C13U  1.16
40. U8G G9C U10C U11G C13U  1.16
41. U8G G9U U10A U11A C12A C13G  1.16
42. U8G G9C U10A U11A C12G  1.16
43. U8G G9U U10A U11G C12G C13G  1.15
44. U8G G9U U10A U11A C12U C13U  1.15
45. U8G G9C U10G C12A C13U  1.15
46. U8G G9U U10A U11A C12A C13A  1.15
47. U8G G9C U10G U11G C12A C13G  1.15
48. U8G G9U U10A C12G  1.15
49. U8G G9C U10G U11A C12G  1.15
50. U8G G9C U10A U11C C12G C13U  1.14
51. U8G G9U U10A U11A C12U C13A  1.14
52. U8G G9C U10A U11A C12U C13A  1.14
53. U8G G9C U10A C12A C13A  1.13
54. U8G G9C U10A  1.13
55. U8G G9U U10A U11G C12A C13U  1.12
56. U8G G9U U10A C12G C13G  1.12
57. U8G G9C U10A C12A C13G  1.12
58. U8G G9C U10G C13G  1.12
59. U8G G9C U10G U11A C12A C13A  1.12
60. U8G G9C U10G C12U C13G  1.11
61. U8G G9C U11G C12G C13U  1.11
62. U8G G9U U10A U11A C12U C13G  1.11
63. U8G G9C U10G C12A C13A  1.11
64. U8G G9U U10A C12U  1.11
65. U8G G9C U10G U11A C12A C13G  1.11
66. U8G G9C U10G U11A C12A C13U  1.11
67. U8G G9C U10A C12G  1.1
68. U8G G9U U10A U11C C12A C13A  1.1
69. U8G G9U U10A U11C C12A C13G  1.1
70. U8G G9C U10C U11A C13U  1.1
71. U8G G9C U11A C12U C13U  1.1
72. U8G G9U C13G  1.1
73. U8G G9C U10C U11G C13G  1.1
74. U8G G9C U10A U11A C12U C13G  1.1
75. U8G G9C U10A U11G C12U C13G  1.1
76. U8G G9C U11A C12G C13G  1.1
77. U8G G9C U10G U11G C12G C13G  1.1
78. U8G G9C U10C U11A C13A  1.09
79. U8G G9C U10A C13U  1.09
80. U8G G9C U11G C12G C13A  1.09
81. U8G G9C U10G C12A C13G  1.09
82. U8G G9C  1.09
83. U8G G9C U10A C12U  1.08
84. U8G G9C U10G C12U C13A  1.08
85. U8G G9C U10C U11G C12A C13A  1.08
86. U8G G9C U10C  1.08
87. U8G G9C U11A C12G C13A  1.08
88. U8G G9C U10G C12G C13G  1.08
89. U8G G9C U10G C12G C13A  1.08
90. U8G G9C U10G U11C C12G C13A  1.08
91. U8G G9C U10G U11C C12G C13U  1.08
92. U8G G9C U10C C12G  1.08
93. U8G G9C U10C U11A C12A C13G  1.07
94. U8G G9C U10A C13A  1.07
95. U8G G9C U11G C12G C13G  1.07
96. U8G G9C U10C C13U  1.07
97. U8G G9C U11A C12G C13U  1.07
98. U8G G9U C12A C13U  1.07
99. U8G G9C U10A U11C C12A C13U  1.07
100. U8G G9C U10A U11C C12A C13G  1.07
101. U8G G9A U11G C13A  1.07
102. U8G G9C U11A C12A C13A  1.07
103. U8G G9C U10G U11A C12U  1.07
104. U8G G9C C12U C13U  1.06
105. U8G G9C U10C U11A C12A C13A  1.06
106. U8G G9U U10A U11G C12A C13G  1.06
107. U8G G9C U11C C13A  1.06
108. U8G G9C U10G C12U  1.06
109. U8G G9C U11A C12U C13G  1.06
110. U8G G9C U10A C13G  1.06
111. U8G G9C U11G C13U  1.06
112. U8G G9C U10C C12U C13A  1.06
113. U8G G9C U10C U11C C12G  1.06
114. U8G G9C U10C U11C C12U  1.06
115. U8G G9C U10C U11A C12G  1.06
116. U8G G9C U10C U11A C12U  1.06
117. U8G G9C U10A U11G C12U C13A  1.06
118. U8G G9C U10A U11C C12A C13A  1.06
119. U8G G9C U11A C12A C13U  1.06
120. U8G G9C U10G U11A C13U  1.06
121. U8G G9C C12U C13A  1.05
122. U8G G9U U10A U11G C12G C13A  1.05
123. U8G G9C U10C U11A C12A C13U  1.05
124. U8G G9U U10A U11G C12A C13A  1.05
125. U8G G9C U10C U11A C13G  1.05
126. U8G G9C U11G C13A  1.05
127. U8G G9C U10A U11C C12G C13A  1.05
128. U8G G9C U10A U11C C12G C13G  1.05
129. U8G G9C U10C C12U C13G  1.05
130. U8G G9C U10C U11C C12A  1.05
131. U8G G9C U10C U11G C12A C13G  1.05
132. U8G G9C U11C C12A  1.05
133. U8G G9C U10C U11A C12A  1.05
134. U8G G9C U11C C12G C13G  1.05
135. U8G G9A U11G C13G  1.05
136. U8G G9C U10G U11C C12G C13G  1.05
137. U8G G9C U11A C12A C13G  1.05
138. U8G G9C U10C C12A  1.05
139. U8G G9C U10G U11A C13A  1.05
140. U8G G9C C12U C13G  1.04
141. U8G G9C U11C C13G  1.04
142. U8G G9C U11G C13G  1.04
143. U8G G9C U10C C12U C13U  1.04
144. U8G G9C U10C U11G C12A C13U  1.04
145. U8G G9C U10C C13G  1.04
146. U8G G9C U11C C12U  1.04
147. U8G G9C U11C C12G  1.04
148. U8G G9C U11C C12G C13U  1.04
149. U8G G9C U10C U11A C12U C13A  1.04
150. U8G G9C U10C U11A C12U C13U  1.04
151. U8G G9C C13A  1.04
152. U8G G9C C13U  1.04
153. U8G G9A U11G C13U  1.04
154. U8G G9C U11C C12U C13U  1.04
155. U8G G9C U11C C13U  1.03
156. U8G G9C U11A C12U C13A  1.03
157. U8G G9U U10A U11C C13G  1.03
158. U8G G9C U10C C13A  1.03
159. U8G G9C U11C C12G C13A  1.03
160. U8G G9C C13G  1.03
161. U8G G9C U11C C12U C13A  1.03
162. U8G G9C U11C C12U C13G  1.03
163. U8G G9C U10C C12U  1.03
164. U8G G9C U10G U11A C13G  1.03
165. U8G G9U U10A U11C C13A  1.02
166. U8G G9C U10C U11A C12U C13G  1.02
167. U8G G9U U10A U11C C13U  1.01
